In PMC9969250:

Legend:
[1] = biological target: T1, Plasmodium falciparum lactate dehydrogenase (PfLDH) (Plasmodium falciparum, UniProt Q76NM3 1-316); test: SPR
[2] = biological target: T1, Plasmodium falciparum lactate …; test: SPR; remark: listed apart in the source

| Binder | Kd [1] | binding result [2] |
| --- | --- | --- |
| TTTAGATCTTTGCCGCTGGGCGGTAGAACCATAGTGACCCAGCCGTCTAC (structured_DNA, biotin (position not given)) [biotinylated L2] | 66 ± 7 nM |  |
| nanotrain without L2 on SPR chip (NT0; 5'-biotin-D + C + B + A.1) (mixed, 5' biotin on D) DNA 1: CGGCAAAGATCTAAAGGCGACAAGGAAAATCCTTCAACGAAGTGGGTCGCCCTAACTCTCTATCCG DNA 2: TTGAGCTGGTTGTATGGCGACAAGGAAAATCCTTCAACGAAGTGGGTCGCCGGATAGAGAGTTAGG DNA 3: ATACAACCAGCTCAAGGCGACAAGGAAAATCCTTCAACGAAGTGGGTCGCCATTCATAAACATAAC DNA 4: GGCGACAAGGAAAATCCTTCAACGAAGTGGGTCGCCGTTATGTTTATGAAT |  | no binding |
